Reference: patent US20050042213
Read-outs that look alike come from different tables or passages of the source.

What was measured:
[1] = molecular target: T1, pro-heparanase (H60), purified recombinant human 60 kDa latent heparanase
T1 chain: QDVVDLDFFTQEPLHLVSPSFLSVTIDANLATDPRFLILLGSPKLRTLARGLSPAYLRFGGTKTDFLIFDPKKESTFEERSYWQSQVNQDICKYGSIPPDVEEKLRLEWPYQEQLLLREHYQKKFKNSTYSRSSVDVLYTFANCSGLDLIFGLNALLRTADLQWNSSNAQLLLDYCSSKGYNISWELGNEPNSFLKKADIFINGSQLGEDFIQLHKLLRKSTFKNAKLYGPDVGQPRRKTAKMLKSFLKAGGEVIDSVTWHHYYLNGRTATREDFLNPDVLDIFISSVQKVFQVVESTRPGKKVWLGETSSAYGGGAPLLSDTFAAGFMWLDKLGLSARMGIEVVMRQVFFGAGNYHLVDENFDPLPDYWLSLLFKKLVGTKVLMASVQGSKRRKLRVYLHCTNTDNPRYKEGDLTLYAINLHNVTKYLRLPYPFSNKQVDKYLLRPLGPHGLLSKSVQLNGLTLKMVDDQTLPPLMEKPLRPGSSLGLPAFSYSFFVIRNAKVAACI

[2] = test system: T2, pro-heparanase (H60), purified recombinant human 60 kDa latent heparanase; remark: listed apart in the source
T2 sequence: T1 chain

B1: elastase from human neutrophils (Calbiochem, 324681) (protein)
chain: IVGGRRARPHAWPFMVSLQLRGGHFCGATLIAPNFVMSAAHCVANVNVRAVRVVLGAHNLSRREPTRQVFAVQRIFENGYDPVNLLNDIVILQLNGSATINANVQVAQLPAQGRRLGNGVQCLAMGWGLLGRNRGIASVLQELNVTVVTSLCRRSNVCTLVRGRQAGVCFGDSGSPLVCNGLIHGIASFVRGGCASGLYPDAFAPVAQFVNWIDSIIQ
heparanase activity after treatment (DMB assay) [1]: treatment of the pro heparanase with cathepsin G or elastase activated the H60 | processing of pro-heparanase in vitro (Western blot) [1]: cathepsin G (FIG. 18) and elastase (FIG. 5), both serine proteases, cleave the pro-heparanase in-vitro, at or near the N-terminus of the H45

B2: cathepsin G (Sigma, C4428) (enzyme, UniProt P08311 21-244, looked up, species assumed)
Cathepsin G: IIGGRESRPHSRPYMAYLQIQSPAGQSRCGGFLVREDFVLTAAHCWGSNINVTLGAHNIQRRENTQQHITARRAIRHPQYNQRTIQNDIMLLQLSRRVRRNRNVNPVALPRAQEGLRPGTLCTVAGWGRVSMRRGTDTLREVQLRVQRDRQCLRIFGSYDPRRQICVGDRRERKAAFKGDSGGPLLCNNVAHGIVSYGKSSGVPPEVFTRVSSFLPWIRTTMRS
heparanase activity after treatment (DMB assay) [2]: treatment of the pro heparanase with cathepsin G or elastase activated the H60 | processing of pro-heparanase in vitro (Western blot) [2]: cathepsin G (FIG. 18) and elastase (FIG. 5), both serine proteases, cleave the pro-heparanase in-vitro, at or near the N-terminus of the H45
